Laboratory results as given in PMC2914225, “Fusion of GFP to the M.EcoKI DNA methyltransferase produces a new probe of Type I DNA restriction and modification enzymes” (Biochemical and Biophysical Research Communications, 2010).

T1: GFP-MTase (M.EcoKI DNA methyltransferase, M2S1 form, with enhanced green fluorescent protein fused to the … (E. coli, UniProt P08957 1-529; P05719 1-464)
T1 construct: HsdM modification (MTase) subunit of the Type I R/M enzyme EcoKI, E. coli; its C-terminus is fused to the N-terminus of EGFP; Construct pJFMSEGFP derives from pJFMS [18] and pEGFP-N1; EGFP serves as the FRET donor; also called M.EcoKI fused to GFP; fusion protein; not shown: EGFP, C-terminal, kept; copies: 2 + 1
T1 sequence (looked up) 1: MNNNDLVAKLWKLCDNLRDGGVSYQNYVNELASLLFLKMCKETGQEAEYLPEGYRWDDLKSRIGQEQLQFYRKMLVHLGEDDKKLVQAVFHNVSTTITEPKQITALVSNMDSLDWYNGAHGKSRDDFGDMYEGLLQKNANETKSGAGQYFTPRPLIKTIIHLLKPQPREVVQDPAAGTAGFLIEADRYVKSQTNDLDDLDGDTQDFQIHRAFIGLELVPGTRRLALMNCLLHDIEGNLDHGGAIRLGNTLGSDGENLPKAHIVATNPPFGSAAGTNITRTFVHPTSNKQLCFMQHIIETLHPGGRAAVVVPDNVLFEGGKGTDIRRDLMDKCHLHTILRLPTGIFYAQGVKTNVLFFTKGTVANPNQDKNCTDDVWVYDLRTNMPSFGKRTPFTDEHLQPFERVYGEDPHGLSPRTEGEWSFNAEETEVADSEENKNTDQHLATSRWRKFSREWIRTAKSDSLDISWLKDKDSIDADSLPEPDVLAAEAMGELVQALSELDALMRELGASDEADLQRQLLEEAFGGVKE
T1 sequence (looked up) 2: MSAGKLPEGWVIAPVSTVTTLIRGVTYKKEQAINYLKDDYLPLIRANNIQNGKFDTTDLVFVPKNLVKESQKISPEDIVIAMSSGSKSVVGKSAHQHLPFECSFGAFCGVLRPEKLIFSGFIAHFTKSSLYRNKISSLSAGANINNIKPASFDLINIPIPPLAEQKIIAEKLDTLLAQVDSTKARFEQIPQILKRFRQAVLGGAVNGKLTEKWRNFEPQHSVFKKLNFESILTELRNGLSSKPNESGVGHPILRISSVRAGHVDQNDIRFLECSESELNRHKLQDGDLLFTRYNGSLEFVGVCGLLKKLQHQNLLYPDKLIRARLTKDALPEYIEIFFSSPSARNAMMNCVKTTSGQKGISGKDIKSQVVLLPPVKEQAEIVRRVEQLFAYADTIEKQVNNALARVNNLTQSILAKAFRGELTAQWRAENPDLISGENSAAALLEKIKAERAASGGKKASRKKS

T2: GFP-MTase (M.EcoKI M2S1 with EGFP fused to C-terminus of HsdS) (Escherichia coli? (EcoKI; expressed in …, UniProt P08957;P05719 1-529;1-464)
T2 sequence 1: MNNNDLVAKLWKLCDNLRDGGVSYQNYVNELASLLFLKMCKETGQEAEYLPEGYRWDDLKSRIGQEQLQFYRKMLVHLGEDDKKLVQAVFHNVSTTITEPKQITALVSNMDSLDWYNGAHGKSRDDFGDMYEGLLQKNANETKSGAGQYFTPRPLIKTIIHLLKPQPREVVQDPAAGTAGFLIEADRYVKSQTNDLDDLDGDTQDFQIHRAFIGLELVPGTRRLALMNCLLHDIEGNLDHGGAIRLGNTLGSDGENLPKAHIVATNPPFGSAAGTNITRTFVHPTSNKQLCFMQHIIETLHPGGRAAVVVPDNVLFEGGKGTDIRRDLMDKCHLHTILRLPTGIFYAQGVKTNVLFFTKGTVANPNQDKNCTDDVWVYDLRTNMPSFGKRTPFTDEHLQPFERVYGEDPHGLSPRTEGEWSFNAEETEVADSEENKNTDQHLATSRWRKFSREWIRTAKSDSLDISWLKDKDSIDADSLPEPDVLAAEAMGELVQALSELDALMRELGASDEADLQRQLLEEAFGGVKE
T2 sequence 2: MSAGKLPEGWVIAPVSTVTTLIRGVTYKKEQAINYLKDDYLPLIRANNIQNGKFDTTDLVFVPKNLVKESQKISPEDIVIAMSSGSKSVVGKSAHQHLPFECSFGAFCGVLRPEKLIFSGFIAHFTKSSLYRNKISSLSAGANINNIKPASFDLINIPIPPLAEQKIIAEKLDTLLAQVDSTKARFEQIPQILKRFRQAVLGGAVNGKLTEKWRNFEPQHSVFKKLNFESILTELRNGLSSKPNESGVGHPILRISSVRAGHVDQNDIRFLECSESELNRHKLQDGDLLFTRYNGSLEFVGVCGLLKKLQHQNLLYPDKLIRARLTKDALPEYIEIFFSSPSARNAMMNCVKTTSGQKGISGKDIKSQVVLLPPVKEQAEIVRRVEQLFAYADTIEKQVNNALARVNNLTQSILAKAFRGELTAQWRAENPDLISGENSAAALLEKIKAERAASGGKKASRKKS


Key:
[1] = biological target: GFP-MTase (M.EcoKI DNA methyltransferase, M2S1 form, with enhanced green fluorescent protein fused to the C-terminus of HsdS) (E. coli) (UniProt P08957); experiment: SEC; labelled mutant ocr proteins with GFP-MTase, size exclusion chromatography as previously described [14]; 20 or 25 °C, 20 mM Tris-HCl pH 8.0, 6 mM MgCl2, 7 mM 2-mercaptoethanol
[2] = biological target: T1, GFP-MTase (M.EcoKI DNA …); experiment: as above; details: both partners purified
[3] = biological target: T2, GFP-MTase (M.EcoKI M2S1 with EGFP fused …); experiment: FRET continuous variation titration; no NaCl; 6 mM Mg2+; 1:1 complex; 20 mM Tris-HCl pH 8.0, 6 mM MgCl2, 7 mM 2-mercaptoethanol, NaCl 0-100 mM (0 for the Kd), 20 or 25 °C; details: protein: recombinant; tags: EGFP-His6 at C-terminus of HsdS; chain copies: 2;1; label: 5'-HEX on top strand; blunt

Molecule	stoichiometry N [1]	further results
Dylight549-labelled ocr E20C mutant protein (from UniProt P03775 1-117) (natural protein)	1	
Dylight549-labelled ocr S68C mutant protein (from UniProt P03775 1-117) (natural protein)	1	
Dylight549-labelled ocr E117C mutant protein (natural protein, phage T7, UniProt P03775 1-117, looked up, Dylight549 maleimide on the introduced cysteine at 117 (labelling level 86.3%), gene 0.3 protein, ocr, from phage T7; one cysteine and so one acceptor label in each subunit; also called E117C ocr; E117E (as printed once); source: site directed mutagenesis and protein purification as described previously [17]) MAMSNMTYNNVFDHAYEMLKENIRYDDIRDTDDLHDAIHMAADNAVPHYYADIFSVMASEGIDLEFEDSGLMPDTKDVIRILQARIYEQLTIDLWEDAEDLLNEYLEEVEEYEEDEC		stoichiometry N [2]: 1
21TH21B (dsDNA) DNA 1: GCCTAACCACGTGGTGCGTAC DNA 2: GTACGCACCACGTGGTTAGGC		Kd [3]: 19 ± 7 nM
